Measured values published in publication PMC4155688, “Mapping the Putative G Protein-coupled Receptor (GPCR) Docking Site on GPCR Kinase 2” (The Journal of Biological Chemistry, 2014).
Positions count from the first letter of the chain named. Numbers in names are those of the source. Blank lines part the entries; values can stand above or below the binder they belong to.

Tests used:
α2AAR-GFP^2 [1] = target: T1, α2AAR-GFP^2 (UniProt P08913 1-465); assay: FRET or BRET; living HEK293T cells co-transfected with α2AAR-GFP^2 and RlucII-GRK2; dose-response to norepinephrine read 6 min after addition; NOR-promoted BRET fitted to biphasic (two-site) curves with a high-affinity and a low-affinity component; conditions: partners not purified
T1 construct: α2A-adrenergic receptor; also called α2A-adrenergic receptor; source: HEK293T, transfected, in living cells; not shown: GFP^2, C-terminal (from the name α2AAR-GFP^2), kept
T1 sequence (looked up): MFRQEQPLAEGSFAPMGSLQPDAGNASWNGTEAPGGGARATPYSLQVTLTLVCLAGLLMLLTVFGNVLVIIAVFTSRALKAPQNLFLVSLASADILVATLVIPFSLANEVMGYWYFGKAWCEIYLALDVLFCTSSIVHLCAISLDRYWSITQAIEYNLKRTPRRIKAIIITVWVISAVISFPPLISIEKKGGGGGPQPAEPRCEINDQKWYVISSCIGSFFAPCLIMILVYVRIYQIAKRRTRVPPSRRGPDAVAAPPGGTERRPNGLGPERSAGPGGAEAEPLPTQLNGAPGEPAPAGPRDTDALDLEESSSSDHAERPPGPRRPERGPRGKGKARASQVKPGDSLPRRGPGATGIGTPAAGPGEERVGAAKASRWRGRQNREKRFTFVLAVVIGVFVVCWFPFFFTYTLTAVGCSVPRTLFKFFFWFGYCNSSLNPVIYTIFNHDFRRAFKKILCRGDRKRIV

α2AAR-GFP^2 [2] = target: T1, α2AAR-GFP^2; assay: FRET or BRET; living HEK293T cells co-transfected with α2AAR-GFP^2 (acceptor) and RlucII-GRK2 (donor); in PBS at room temperature, with or without 100 μM norepinephrine (one-point and titration: 6 min; time course); coelenterazine 400A 5 μM; net or agonist-promoted BRET; conditions: partners not purified

B1: RlucII-GRK2 (wild type) (enzyme, human, UniProt P25098 1-689, looked up)
chain: MADLEAVLADVSYLMAMEKSKATPAARASKKILLPEPSIRSVMQKYLEDRGEVTFEKIFSQKLGYLLFRDFCLNHLEEARPLVEFYEEIKKYEKLETEEERVARSREIFDSYIMKELLACSHPFSKSATEHVQGHLGKKQVPPDLFQPYIEEICQNLRGDVFQKFIESDKFTRFCQWKNVELNIHLTMNDFSVHRIIGRGGFGEVYGCRKADTGKMYAMKCLDKKRIKMKQGETLALNERIMLSLVSTGDCPFIVCMSYAFHTPDKLSFILDLMNGGDLHYHLSQHGVFSEADMRFYAAEIILGLEHMHNRFVVYRDLKPANILLDEHGHVRISDLGLACDFSKKKPHASVGTHGYMAPEVLQKGVAYDSSADWFSLGCMLFKLLRGHSPFRQHKTKDKHEIDRMTLTMAVELPDSFSPELRSLLEGLLQRDVNRRLGCLGRGAQEVKESPFFRSLDWQMVFLQKYPPPLIPPRGEVNAADAFDIGSFDEEDTKGIKLLDSDQELYRNFPLTISERWQQEVAETVFDTINAETDRLEARKKAKNKQLGHEEDYALGKDCIMHGYMSKMGNPFLTQWQRRYFYLFPNRLEWRGEGEAPQSLLTMEEIQSVEETQIKERKCLLLKIRGGKQFILQCDSDPELVQWKKELRDAYREAQQLVQRVPKMKNKPRSPVVELSKVPLVQRGSANGL
notes: G protein-coupled receptor kinase 2 (GRK2), human; also called luciferase-GRK2; WT RlucII-GRK2; source: HEK293T, transfected, in living cells
EC50,L of norepinephrine (low-affinity component of the biphasic BRET curve) (α2AAR-GFP^2 [1]): 7.9 µM

B2: RlucII-GRK2 L8E (enzyme, human, UniProt P25098 1-689, looked up)
chain: B1 chain with L8E
notes: GRK2, human; source: HEK293T, transfected, in living cells
percent reduction of the agonist-promoted BRET relative to WT (α2AAR-GFP^2 [2]): ~55%

B5: RlucII-GRK2 V7E (enzyme, human, UniProt P25098 1-689, looked up)
chain: B1 chain with V7E
notes: as for B2
percent reduction of the agonist-promoted BRET relative to WT (α2AAR-GFP^2 [2]): ~55%

B7: RlucII-GRK2 V7A (enzyme, human, UniProt P25098 1-689, looked up)
chain: B1 chain with V7A
notes: as for B2
percent reduction of the agonist-promoted BRET relative to WT (α2AAR-GFP^2 [2]): ~55%

B8: RlucII-GRK2 M17A (enzyme, human, UniProt P25098 1-689, looked up)
chain: B1 chain with M17A
notes: as for B2
percent reduction of the agonist-promoted BRET relative to WT (α2AAR-GFP^2 [2]): ~55%

B9: RlucII-GRK2 L4A (enzyme, human, UniProt P25098 1-689, looked up)
chain: B1 chain with L4A
notes: as for B2
percent reduction of the low-affinity BRET component relative to WT (α2AAR-GFP^2 [1]): ~70% | percent reduction of the agonist-promoted BRET relative to WT (α2AAR-GFP^2 [2]): ~55%

B11: RlucII-GRK2 A16V (enzyme, human, UniProt P25098 1-689, looked up)
chain: B1 chain with A16V
notes: as for B2
percent reduction of the agonist-promoted BRET relative to WT (α2AAR-GFP^2 [2]): ~55%

B12: RlucII-GRK2 S12A (enzyme, human, UniProt P25098 1-689, looked up)
chain: B1 chain with S12A
notes: as for B2
fold stimulation of the low-affinity BRET component relative to WT (α2AAR-GFP^2 [1]): 2.6 fold | fold potentiation of the total agonist-induced BRET relative to WT (α2AAR-GFP^2 [2]): 2 fold

B13: RlucII-GRK2 R195A (enzyme, human, UniProt P25098 1-689, looked up)
chain: B1 chain with R195A
notes: as for B2
percent reduction of the low-affinity BRET component relative to WT (α2AAR-GFP^2 [1]): ~60% | percent reduction of the agonist-promoted BRET signal relative to WT (α2AAR-GFP^2 [2]): 60%

B14: RlucII-GRK2 D317A (enzyme, human, UniProt P25098 1-689, looked up)
chain: B1 chain with D317A
notes: GRK2, human; catalytically inert mutant; source: HEK293T, transfected, in living cells
fold recruitment (agonist-promoted BRET) relative to WT (α2AAR-GFP^2 [2]): 2 fold

B16: RlucII-GRK2 R587Q (enzyme, human, UniProt P25098 1-689, looked up)
chain: B1 chain with R587Q
notes: as for B2
percent reduction of the NOR-promoted BRET signal relative to WT (α2AAR-GFP^2 [2]): 90%

More lines, now with the values ahead:

percent reduction of the agonist-promoted BRET relative to WT (α2AAR-GFP^2 [2]): ~55%
B3: RlucII-GRK2 V11A (enzyme, human, UniProt P25098 1-689, looked up)
chain: B1 chain with V11A
notes: as for B2

percent inhibition of the high-agonist concentration BRET signal relative to WT (α2AAR-GFP^2 [1]): 74%
B4: RlucII-GRK2 V477D (enzyme, human, UniProt P25098 1-689, looked up)
chain: B1 chain with V477D
notes: as for B2

percent reduction of the low-affinity BRET component relative to WT (α2AAR-GFP^2 [1]): ~70% | percent reduction of the agonist-promoted BRET relative to WT (α2AAR-GFP^2 [2]): ~55%
B6: RlucII-GRK2 Y13A (enzyme, human, UniProt P25098 1-689, looked up)
chain: B1 chain with Y13A
notes: as for B2

percent reduction of receptor recruitment (agonist-promoted BRET) relative to WT (α2AAR-GFP^2 [2]): 69%
B10: RlucII-GRK2 V7E/L8E (enzyme, human, UniProt P25098 1-689, looked up)
chain: B1 chain with V7E, L8E
notes: as for B2

percent reduction of receptor recruitment (agonist-promoted BRET) relative to WT (α2AAR-GFP^2 [2]): 60%
B15: RlucII-GRK2 V7P (enzyme, human, UniProt P25098 1-689, looked up)
chain: B1 chain with V7P
notes: as for B2
